Tests used:
IL-8 = assay: Micro-array analysis of chemokine binding peptides: IL-8; details: limit = start of the upper 75% of that peptide's response range
Method: (§1) (1) Printing: Chemokine (CK) solution (in water) was serially diluted with Print Reagent (GenTel BioSurfaces USA) to final concentrations of 50 μg and 25 μg/ml. BSA/BSA-Biotin control solutions (in water) were diluted with Print Reagent to 100 μg/ml. Amplified stock of M13 phage control (M13KEgIII Cloning Vector, New England Biolabs, Cat.No.E8101S) was stored in Tris Buffered Saline (TBS; pH7.5, 4° C.) and diluted with Print Reagent to the working titre (10^8 pfu/μl). An automated spotting robot (16 pin print tool, 0.4 mm head; BioRobotics, UK) was used to print the CK/BSA control/M13 control, 5 repeats per sample (CK 25 μg/ml and 50 μg/ml; BSA 100 μg/ml; M13 20 μl), on PATH Protein Microarray Slides (GenTel, Prod.No. 2-1005/-1025) at […], and 50-70% relative humidity. Printed micro-array slides were stored at Room Temperature (RT) or 4° C. for at least 24 h before use.
(§2) (2) Blocking: Block Buffer (500 μl/partition; PATHblock, GenTel, Prod.No. 2-1014) was applied to the slide for 1 hour at room temp (RT). After removal of Block Buffer, the slide was air dried for 25 minutes;
(§3) (3) Phage Presented Peptide Binding: Amplified recombinant phage stock was stored in TBS and diluted with Wash Buffer to working titer (10^7 pfu/μl). Recombinant phage suspension (300 μl) was applied per partition and incubated at RT for 1 hour with gentle agitation.
(§4) (4) First Washing: The slides were washed twice with Wash Buffer 300 μl/partition).
(§5) (5) Primary Antibody (Ab) Labeling: The slides were incubated with the Primary Ab (1 mg/ml diluted ×2500 (Wash Reagent), 300 μl; Mouse Anti-M13 monoclonal Ab; Amersham Biosciences, UK; Product Code 27-9420-01) for 45 minutes at RT.
(§6) (6) Second Washing: The slides were washed twice with Wash Buffer (300 μl/partition).
(§7) (7) Secondary Ab Labeling: The slides were incubated with Secondary Ab (1.5 mg/ml diluted ×5000 (Wash Reagent), 300 μl; Cy3-conjugated AffiniPure Goat Anti-Mouse IgG; Jackson ImmunoReserch Labs, USA; Product Code 115-165-062).
(§8) (8) Third Washing: The slides were washed twice with Wash Buffer (300 μl/partition).
(§9) (9) Rinse: the slides were rinsed twice with Rinse Buffer (PATHrinse, GenTel, Prod.No. 2-1018) then dried well.
(§10) (10) Scanning: The peptide-bound, labeled slide was scanned (Laser Intensity 80%, Gain 80%, Resolution 10 μm) with a ScanArray Life Scanner (Packard BioChip Technologies, USA).
(§11) (11) Analysis: Quantitative analysis of micro-array was performed by the SpotReader program of Niles Scientific (USA) and presented as Relative Fluorescence (RF) as a function of CK concentration. Micro-array readout (Cy3 fluorescence) was quantified to determine the relative binding affinities of a CBP for the CKs and by inference, the specificity of the CBP for binding to a CK.

Mig = molecular target: T1, Mig (Homo sapiens, UniProt Q07325); assay: Micro-array analysis of chemokine binding peptides: Mig; details: limit = start of the upper 75% of that peptide's response range
T1 construct: purchased 300-26
T1 sequence (Q07325 23-125): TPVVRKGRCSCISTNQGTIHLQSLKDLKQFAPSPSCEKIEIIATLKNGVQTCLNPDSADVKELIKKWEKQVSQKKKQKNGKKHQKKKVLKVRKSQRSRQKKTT
Method: as §1, §2, §3, §4, §5, §6, §7, §8, §9, §10, §11

I-TAC = molecular target: T2, I-TAC (Homo sapiens, UniProt O14625); assay: Micro-array analysis of chemokine binding peptides: I-TAC; details: limit = start of the upper 75% of that peptide's response range
T2 construct: purchased 300-46
T2 sequence (O14625 22-94): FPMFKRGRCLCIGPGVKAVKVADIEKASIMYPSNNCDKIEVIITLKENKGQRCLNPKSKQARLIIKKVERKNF
Method: as §1, §2, §3, §4, §5, §6, §7, §8, §9, §10, §11

I-309 = molecular target: T3, I-309 (Homo sapiens, UniProt P22362); assay: Micro-array analysis of chemokine binding peptides: I-309; details: limit = start of the upper 75% of that peptide's response range
T3 construct: purchased 300-37
T3 sequence (P22362 24-96): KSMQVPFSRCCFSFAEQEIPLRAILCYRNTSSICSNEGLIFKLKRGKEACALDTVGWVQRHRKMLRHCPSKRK
Method: as §1, §2, §3, §4, §5, §6, §7, §8, §9, §10, §11

MCP-1 = molecular target: T4, MCP-1 (Homo sapiens, UniProt P13500); assay: Micro-array analysis of chemokine binding peptides: MCP-1; details: limit = start of the upper 75% of that peptide's response range
T4 construct: purchased 300-04
T4 sequence (P13500 24-99): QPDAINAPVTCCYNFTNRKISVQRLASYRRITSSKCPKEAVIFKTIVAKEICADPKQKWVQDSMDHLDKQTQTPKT
Method: as §1, §2, §3, §4, §5, §6, §7, §8, §9, §10, §11

MCP-2 = molecular target: T5, MCP-2 (Homo sapiens, UniProt P80075); assay: Micro-array analysis of chemokine binding peptides: MCP-2; details: limit = start of the upper 75% of that peptide's response range
T5 construct: purchased 300-15
T5 sequence (P80075 24-99): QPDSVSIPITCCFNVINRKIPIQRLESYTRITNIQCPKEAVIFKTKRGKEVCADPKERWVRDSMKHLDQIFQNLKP
Method: as §1, §2, §3, §4, §5, §6, §7, §8, §9, §10, §11

MCP-4 = molecular target: T6, MCP-4 (Homo sapiens, UniProt Q99616); assay: Micro-array analysis of chemokine binding peptides: MCP-4; details: limit = start of the upper 75% of that peptide's response range
T6 construct: purchased 300-24
T6 sequence (Q99616 17-98): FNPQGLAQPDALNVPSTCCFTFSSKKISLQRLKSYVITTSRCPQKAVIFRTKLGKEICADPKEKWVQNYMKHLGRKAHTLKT
Method: as §1, §2, §3, §4, §5, §6, §7, §8, §9, §10, §11

RANTES = molecular target: T7, RANTES (Homo sapiens, UniProt P13501); assay: Micro-array analysis of chemokine binding peptides: RANTES; details: limit = start of the upper 75% of that peptide's response range
T7 construct: purchased 300-06
T7 sequence (P13501 24-91): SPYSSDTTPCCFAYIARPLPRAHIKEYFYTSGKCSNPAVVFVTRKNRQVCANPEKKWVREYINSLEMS
Method: as §1, §2, §3, §4, §5, §6, §7, §8, §9, §10, §11

Eotaxin = molecular target: T8, Eotaxin (Homo sapiens, UniProt P51671); assay: Micro-array analysis of chemokine binding peptides: Eotaxin; details: limit = start of the upper 75% of that peptide's response range
T8 construct: purchased 300-21
T8 sequence (P51671 24-97): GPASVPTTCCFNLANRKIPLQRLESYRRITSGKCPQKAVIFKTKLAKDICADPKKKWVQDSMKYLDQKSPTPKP
Method: as §1, §2, §3, §4, §5, §6, §7, §8, §9, §10, §11

Eotaxin 2 = molecular target: T9, Eotaxin 2 (Homo sapiens, UniProt O00175); assay: Micro-array analysis of chemokine binding peptides: Eotaxin 2; details: limit = start of the upper 75% of that peptide's response range
T9 construct: purchased 300-33
T9 sequence (O00175 27-119): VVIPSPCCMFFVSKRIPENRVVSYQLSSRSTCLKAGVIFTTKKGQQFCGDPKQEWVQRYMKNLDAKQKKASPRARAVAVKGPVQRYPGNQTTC
Method: as §1, §2, §3, §4, §5, §6, §7, §8, §9, §10, §11

Eotaxin 3 = molecular target: T10, Eotaxin 3 (Homo sapiens, UniProt Q9Y258); assay: Micro-array analysis of chemokine binding peptides: Eotaxin 3; details: limit = start of the upper 75% of that peptide's response range
T10 construct: purchased 300-48
T10 sequence (Q9Y258 24-94): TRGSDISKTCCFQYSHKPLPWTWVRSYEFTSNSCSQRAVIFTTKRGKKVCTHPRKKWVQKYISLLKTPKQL
Method: as §1, §2, §3, §4, §5, §6, §7, §8, §9, §10, §11

SDF1-α = molecular target: T11, SDF1-α (Homo sapiens, UniProt P48061); assay: Micro-array analysis of chemokine binding peptides: SDF1-α
T11 construct: purchased 300-28a
T11 sequence (P48061 22-89 limits assumed): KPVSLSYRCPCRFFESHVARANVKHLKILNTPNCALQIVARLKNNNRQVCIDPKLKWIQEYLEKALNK
Method: as §1, §2, §3, §4, §5, §6, §7, §8, §9, §10, §11

SDF1-β = molecular target: T12, SDF1-β (Homo sapiens, UniProt P48061); assay: Micro-array analysis of chemokine binding peptides: SDF1-β
T12 construct: purchased 300-28b
T12 sequence (P48061 22-93): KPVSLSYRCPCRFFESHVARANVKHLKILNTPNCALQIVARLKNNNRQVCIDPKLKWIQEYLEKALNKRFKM
Method: as §1, §2, §3, §4, §5, §6, §7, §8, §9, §10, §11

BCA-1 = molecular target: T13, BCA-1 (Homo sapiens, UniProt O43927); assay: Micro-array analysis of chemokine binding peptides: BCA-1
T13 construct: purchased 300-47
T13 sequence (O43927 23-109): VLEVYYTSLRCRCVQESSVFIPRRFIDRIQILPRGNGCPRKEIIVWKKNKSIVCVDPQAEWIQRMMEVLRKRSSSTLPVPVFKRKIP
Method: as §1, §2, §3, §4, §5, §6, §7, §8, §9, §10, §11

TECK = molecular target: T14, TECK (Homo sapiens, UniProt O15444); assay: Micro-array analysis of chemokine binding peptides: TECK
T14 construct: purchased 300-45
T14 sequence (O15444 24-150): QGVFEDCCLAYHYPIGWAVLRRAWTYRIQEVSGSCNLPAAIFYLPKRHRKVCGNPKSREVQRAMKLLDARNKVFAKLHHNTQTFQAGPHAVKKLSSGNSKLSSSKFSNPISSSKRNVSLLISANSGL
Method: as §1, §2, §3, §4, §5, §6, §7, §8, §9, §10, §11

Fractalkine = molecular target: T15, Fractalkine (Homo sapiens, UniProt P78423); assay: Micro-array analysis of chemokine binding peptides: Fractalkine
T15 construct: purchased 300-31
T15 sequence (P78423 25-100 limits assumed): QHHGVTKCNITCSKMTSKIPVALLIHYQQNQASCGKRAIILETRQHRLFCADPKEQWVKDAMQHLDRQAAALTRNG
Method: as §1, §2, §3, §4, §5, §6, §7, §8, §9, §10, §11

Lymphotactin = molecular target: T16, Lymphotactin (Homo sapiens, UniProt P47992); assay: Micro-array analysis of chemokine binding peptides: Lymphotactin
T16 construct: purchased 300-20
T16 sequence (P47992 22-114): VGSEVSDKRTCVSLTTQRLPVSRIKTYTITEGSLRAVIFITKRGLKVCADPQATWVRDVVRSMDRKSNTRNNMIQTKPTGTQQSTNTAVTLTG
Method: as §1, §2, §3, §4, §5, §6, §7, §8, §9, §10, §11

Exodus-2 = molecular target: T17, Exodus-2 (Homo sapiens, UniProt O00585); assay: Micro-array analysis of chemokine binding peptides: Exodus-2
T17 construct: purchased 300-35
T17 sequence (O00585 24-134): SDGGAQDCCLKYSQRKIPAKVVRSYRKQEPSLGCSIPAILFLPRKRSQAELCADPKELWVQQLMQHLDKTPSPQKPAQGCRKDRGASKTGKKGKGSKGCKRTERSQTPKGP
Method: as §1, §2, §3, §4, §5, §6, §7, §8, §9, §10, §11

IL-8, sequence (P10145 28-99 limits assumed): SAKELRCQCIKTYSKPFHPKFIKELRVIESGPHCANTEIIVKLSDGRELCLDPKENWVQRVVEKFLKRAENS

For DYDYG (listed as Homo sapiens) [Ph-p31], the “binding to IL-8 with relatively high affinity (Relative Fluorescence Units)” value (IL-8) was > 15,000 RFU, the “binding to Mig with relatively high affinity (Relative Fluorescence Units)” value (Mig) was > 15,000 RFU and the “binding to I-TAC with relatively high affinity (Relative Fluorescence Units)” value (I-TAC) was > 15,000 RFU. For the same substance, the “binding to I-309 with relatively high affinity (Relative Fluorescence Units)” value (I-309) was > 15,000 RFU, the “binding to MCP-1 with relatively high affinity (Relative Fluorescence Units)” value (MCP-1) was > 15,000 RFU and the “binding to MCP-2 with relatively high affinity (Relative Fluorescence Units)” value (MCP-2) was > 15,000 RFU. For the same substance, the “binding to MCP-4 with relatively high affinity (Relative Fluorescence Units)” value (MCP-4) was > 15,000 RFU, the “binding to RANTES with relatively high affinity (Relative Fluorescence Units)” value (RANTES) was > 15,000 RFU and the “binding to Eotaxin with relatively high affinity (Relative Fluorescence Units)” value (Eotaxin) was > 15,000 RFU. The “binding to Eotaxin 2 with relatively high affinity (Relative Fluorescence Units)” value (Eotaxin 2) was > 15,000 RFU, the “binding to Eotaxin 3 with relatively high affinity (Relative Fluorescence Units)” value (Eotaxin 3) was > 15,000 RFU and the “binding to SDF1-α, stated in words” value (SDF1-α) was “bound”. The “binding to SDF1-β, stated in words” value (SDF1-β) was “bound”, the “binding to BCA-1, stated in words” value (BCA-1) was “bound” and the “binding to TECK, stated in words” value (TECK) was “bound”. For the same substance, the “binding to Fractalkine, stated in words” value (Fractalkine) was “bound”, the “binding to Lymphotactin, stated in words” value (Lymphotactin) was “bound” and the “binding to Exodus-2, stated in words” value (Exodus-2) was “bound”.
